Results reported in publication PMC3500269.

B1: PMO-02916 (enzyme)
chain: HTIFQKVSVNGADQGQLKGIRAPANNNPVTDVMSSDIICNAVTMKDSNVLTVPAGAKVGHFWGHEIGGAAGPNDADNPIAASHKGPIMVYLAKVDNAATTGTSGLKWFKVAEAGLSNGKWAVDDLIANNGWSYFDMPTCIAPGQYLMRAELIALHNAGSQAGAQFYIGCAQINVTGGGSASPSNTVSFPGAYSASDPGILINIYGGSGKTDNGGKPYQIPGPALFTCPAGGSGGSSPAPATTASTPKPTSASAPKPVSTTASTPKPTNGSGSGTGAAHSTKCGGSKPAATTKASNPQPTNGGNSAVRAAALYGQCGGKGWTGPTSCASGTCKFSNDWYSQCLP
B2: PMO-03328 (enzyme)
chain: HYTFPKVWANSGTTADWQYVRRADNWQNNGFVDNVNSQQIRCFQSTHSPAQSTLSVAAGTTITYGAAPSVYHPGPMQFYLARVPDGQDINSWTGEGAVWFKIYHEQPTFGSQLTWSSNGKSSFPVKIPSCIKSGSYLLRAEHIGLHVAQSSGAAQFYISCAQLSITGGGSTEPGANYKVSFPGAYKASDPGILININYPVPTSYKNPGPSVFTC
B3: PMO-08760 (enzyme)
chain: HATFQALWVDGADYGSQCARVPPSNSPVTDVTSNAMRCNTGTSPVAKKCPVKAGSTVTVEMHQQANDRSCSSEAIGGAHYGPVLVYMSKVSDAASADGSSGWFKIFEDTWAKKPSSSSGDDDFWGVKDLNSCCGKMQVKIPSDIPAGDYLLRAEVIALHTAASAGGAQLYMTCYQISVTGGGSATPATVSFPGAYKSSDPGILVDIHSAMSTYVAPGPAVYSGGSSKKAGSGCVGCESTCKVGSGPTGTASAVPVASTSAAAGGGGGGGSGGCSVAKYQQCGGTGYTGCTSCASGSTCSAVSPPYYSQCV
B4: PMO-01867 (enzyme)
chain: HAIFQQLWVDGVDYGSTCNRLPTSNSPVTNVGSRDVVCNAGTRGVSGKCPVKAGGTVTVEMHQQPGDRSCKSEAIGGAHWGPVQIYLSKVSDASTADGSSGGWFKIFSDAWSKKSGGRVGDDDNWGTRDLNACCGRMDVLIPKDLPSGDYLLRAEALALHTAGQSGGAQFYISCYQITVSGGGSANYATVKFPGAYRASDPGIQINIHAVVSNYVAPGPAVVAGGVTKQAGSGCIGCESTCKVGSSPSAVAPGGKPASGGSDGNAPEVAEPSGGEGSPSAPGACEVAAYGQCGGDQYSGCTQCASGYTCKAVSPPYYSQCAPTS

Target: cellobiose dehydrogenase IIA from N. crassa (N. crassa)

| Binder | Specific activity of H2O2 production (Amplex Red/horseradish peroxidase assay) with CDH IIA (0.3 uM, 500 uM cellobiose) as reductant |
| --- | --- |
| B1 | 1.82 U g^-1 |
| B2 | 15.5 U g^-1 |
| B3 | 1.53 U g^-1 |
| B4 | 1.07 U g^-1 |
